Results: patent US20110044995A1

Assays:
Assay in all cases: cell-based or functional assay
[1] = target: envelope of standard panel pseudotyped virus SVPB17 (HIV-1 subtype B)
[2] = target: envelope of standard panel pseudotyped virus SVPB18 (HIV-1 subtype B)
[3] = target: envelope of HIV-2 strain ROD (HIV-2 strain ROD) (UniProt P04577)
[4] = target: envelope of HIV-1 strain 89.6 (HIV-1 strain 89.6) (UniProt Q73372)
[5] = target: envelope of HIV-1 strain JR-FL (JRFLwt), on virus (HIV-1 strain JR-FL)
[6] = target: envelope of standard panel pseudotyped virus SVPB15 (HIV-1 subtype B)
[7] = target: envelope of HIV-2 strain EHO (HIV-2 strain EHO)
[8] = target: envelope of standard panel pseudotyped virus SVPB14 (HIV-1 subtype B)
[9] = target: envelope of HIV-1 strain IIIB (HIV-1 strain IIIB)
[10] = target: envelope of HIV-1 strain BaL (HIV-1 strain BaL)
[11] = target: envelope of standard panel pseudotyped virus SVPB16 (HIV-1 subtype B)
[12] = target: envelope of HIV-1 strain JRFLGPER
[13] = target: envelope of standard panel pseudotyped virus SVPB8 (HIV-1 subtype B)
[14] = target: envelope of standard panel pseudotyped virus SVPB12 (HIV-1 subtype B)
[15] = target: envelope of standard panel pseudotyped virus SVPB5 (HIV-1 subtype B)
[16] = target: envelope of standard panel pseudotyped virus SVPB6 (HIV-1 subtype B)
[17] = target: envelope of HIV-1 strain SF162 (HIV-1 strain SF162) (UniProt P19550)
[18] = target: envelope of HIV-1 strain YU2 (HIV-1 strain YU2) (UniProt P35961)
Chain of envelope of HIV-1 strain YU2 (HIV-1 strain YU2) (P35961 32-843): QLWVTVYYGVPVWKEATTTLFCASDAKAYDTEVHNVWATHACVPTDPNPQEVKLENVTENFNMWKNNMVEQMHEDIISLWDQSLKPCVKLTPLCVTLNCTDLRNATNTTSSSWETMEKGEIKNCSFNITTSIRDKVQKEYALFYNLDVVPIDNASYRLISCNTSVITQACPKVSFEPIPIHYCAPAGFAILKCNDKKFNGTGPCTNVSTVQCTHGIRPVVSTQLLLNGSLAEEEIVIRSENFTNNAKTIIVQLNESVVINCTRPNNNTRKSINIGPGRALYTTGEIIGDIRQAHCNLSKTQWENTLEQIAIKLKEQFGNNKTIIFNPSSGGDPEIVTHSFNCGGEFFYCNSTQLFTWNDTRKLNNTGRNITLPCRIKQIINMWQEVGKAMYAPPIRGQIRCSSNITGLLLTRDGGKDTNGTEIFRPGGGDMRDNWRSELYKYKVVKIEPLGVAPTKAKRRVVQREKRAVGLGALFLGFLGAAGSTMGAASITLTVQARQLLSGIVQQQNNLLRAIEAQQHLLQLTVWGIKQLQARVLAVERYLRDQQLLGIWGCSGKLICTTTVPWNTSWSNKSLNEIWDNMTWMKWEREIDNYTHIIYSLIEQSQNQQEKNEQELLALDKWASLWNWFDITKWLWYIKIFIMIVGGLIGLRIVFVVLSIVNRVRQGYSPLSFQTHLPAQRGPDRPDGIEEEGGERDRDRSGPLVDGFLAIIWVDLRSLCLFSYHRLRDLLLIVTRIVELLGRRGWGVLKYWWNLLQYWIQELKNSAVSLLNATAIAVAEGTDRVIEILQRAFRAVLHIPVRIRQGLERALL

[19] = target: envelope of standard panel pseudotyped virus SVPB13 (HIV-1 subtype B)
[20] = target: envelope of standard panel pseudotyped virus SVPB11 (HIV-1 subtype B)

Chain of envelope of HIV-2 strain ROD (HIV-2 strain ROD) (P04577 20-858): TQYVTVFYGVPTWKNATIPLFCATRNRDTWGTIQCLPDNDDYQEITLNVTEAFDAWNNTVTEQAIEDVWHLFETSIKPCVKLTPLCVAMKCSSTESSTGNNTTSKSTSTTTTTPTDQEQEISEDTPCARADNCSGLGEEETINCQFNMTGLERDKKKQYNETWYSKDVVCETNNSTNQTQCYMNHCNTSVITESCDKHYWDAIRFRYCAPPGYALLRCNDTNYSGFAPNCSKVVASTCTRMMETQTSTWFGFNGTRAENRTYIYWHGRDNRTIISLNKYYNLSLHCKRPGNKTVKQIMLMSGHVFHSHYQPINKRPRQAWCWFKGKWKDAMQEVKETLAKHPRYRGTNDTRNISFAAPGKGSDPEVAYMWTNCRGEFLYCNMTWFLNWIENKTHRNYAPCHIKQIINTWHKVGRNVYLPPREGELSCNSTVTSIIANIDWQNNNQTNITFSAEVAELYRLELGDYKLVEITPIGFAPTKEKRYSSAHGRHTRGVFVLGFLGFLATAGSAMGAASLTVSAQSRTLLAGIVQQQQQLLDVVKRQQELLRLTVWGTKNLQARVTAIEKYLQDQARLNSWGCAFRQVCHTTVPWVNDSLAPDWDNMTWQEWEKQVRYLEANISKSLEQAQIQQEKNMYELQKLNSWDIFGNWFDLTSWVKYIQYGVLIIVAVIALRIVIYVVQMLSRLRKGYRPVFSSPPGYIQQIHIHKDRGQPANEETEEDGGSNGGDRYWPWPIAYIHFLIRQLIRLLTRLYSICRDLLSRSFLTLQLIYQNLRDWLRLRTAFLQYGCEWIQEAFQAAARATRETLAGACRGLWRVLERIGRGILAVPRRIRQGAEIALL

## KD-247 (antibody)
[1]
  IC50 in TZM-bl cells: 17 µg/mL
[2]
  IC50 in TZM-bl cells: 28 µg/mL
[3]
  IC50, neutralizing activity (MTT assay): > 50 µg/mL
[4]
  IC50, neutralizing activity (MTT assay): 4.2 µg/mL
[5]
  IC50, neutralizing activity (MTT assay): 12 µg/mL
[6]
  IC50 in TZM-bl cells: > 50 µg/mL
[7]
  IC50, neutralizing activity (MTT assay): > 50 µg/mL
[8]
  IC50 in TZM-bl cells: > 50 µg/mL
[9]
  IC50, neutralizing activity (MTT assay): > 50 µg/mL
[10]
  IC50, neutralizing activity (MTT assay): 3.8 µg/mL
[11]
  IC50 in TZM-bl cells: > 50 µg/mL
[12]
  IC50, neutralizing activity (MTT assay): > 50 µg/mL
[13]
  IC50 in TZM-bl cells: > 50 µg/mL
[14]
  IC50 in TZM-bl cells: > 50 µg/mL
[15]
  IC50 in TZM-bl cells: 1.8 µg/mL
[16]
  IC50 in TZM-bl cells: > 50 µg/mL
[17]
  IC50, neutralizing activity (MTT assay): 0.21 µg/mL
[18]
  IC50, neutralizing activity (MTT assay): > 50 µg/mL
[19]
  IC50 in TZM-bl cells: > 50 µg/mL
[20]
  IC50 in TZM-bl cells: > 50 µg/mL
